From US20200129532A1 (SALK INSTITUTE FOR BIOLOGICAL STUDIES, published 2020) come the findings set out here.

The test has as its target endogenous ARID2 (293T cells) (UniProt Q68CP9 2-1835, limits assumed). Nature of the test: immunoprecipitation of endogenous BAF/PBAF components in 293T cells.

Chain of endogenous ARID2 (293T cells) (Q68CP9 2-1835 limits assumed): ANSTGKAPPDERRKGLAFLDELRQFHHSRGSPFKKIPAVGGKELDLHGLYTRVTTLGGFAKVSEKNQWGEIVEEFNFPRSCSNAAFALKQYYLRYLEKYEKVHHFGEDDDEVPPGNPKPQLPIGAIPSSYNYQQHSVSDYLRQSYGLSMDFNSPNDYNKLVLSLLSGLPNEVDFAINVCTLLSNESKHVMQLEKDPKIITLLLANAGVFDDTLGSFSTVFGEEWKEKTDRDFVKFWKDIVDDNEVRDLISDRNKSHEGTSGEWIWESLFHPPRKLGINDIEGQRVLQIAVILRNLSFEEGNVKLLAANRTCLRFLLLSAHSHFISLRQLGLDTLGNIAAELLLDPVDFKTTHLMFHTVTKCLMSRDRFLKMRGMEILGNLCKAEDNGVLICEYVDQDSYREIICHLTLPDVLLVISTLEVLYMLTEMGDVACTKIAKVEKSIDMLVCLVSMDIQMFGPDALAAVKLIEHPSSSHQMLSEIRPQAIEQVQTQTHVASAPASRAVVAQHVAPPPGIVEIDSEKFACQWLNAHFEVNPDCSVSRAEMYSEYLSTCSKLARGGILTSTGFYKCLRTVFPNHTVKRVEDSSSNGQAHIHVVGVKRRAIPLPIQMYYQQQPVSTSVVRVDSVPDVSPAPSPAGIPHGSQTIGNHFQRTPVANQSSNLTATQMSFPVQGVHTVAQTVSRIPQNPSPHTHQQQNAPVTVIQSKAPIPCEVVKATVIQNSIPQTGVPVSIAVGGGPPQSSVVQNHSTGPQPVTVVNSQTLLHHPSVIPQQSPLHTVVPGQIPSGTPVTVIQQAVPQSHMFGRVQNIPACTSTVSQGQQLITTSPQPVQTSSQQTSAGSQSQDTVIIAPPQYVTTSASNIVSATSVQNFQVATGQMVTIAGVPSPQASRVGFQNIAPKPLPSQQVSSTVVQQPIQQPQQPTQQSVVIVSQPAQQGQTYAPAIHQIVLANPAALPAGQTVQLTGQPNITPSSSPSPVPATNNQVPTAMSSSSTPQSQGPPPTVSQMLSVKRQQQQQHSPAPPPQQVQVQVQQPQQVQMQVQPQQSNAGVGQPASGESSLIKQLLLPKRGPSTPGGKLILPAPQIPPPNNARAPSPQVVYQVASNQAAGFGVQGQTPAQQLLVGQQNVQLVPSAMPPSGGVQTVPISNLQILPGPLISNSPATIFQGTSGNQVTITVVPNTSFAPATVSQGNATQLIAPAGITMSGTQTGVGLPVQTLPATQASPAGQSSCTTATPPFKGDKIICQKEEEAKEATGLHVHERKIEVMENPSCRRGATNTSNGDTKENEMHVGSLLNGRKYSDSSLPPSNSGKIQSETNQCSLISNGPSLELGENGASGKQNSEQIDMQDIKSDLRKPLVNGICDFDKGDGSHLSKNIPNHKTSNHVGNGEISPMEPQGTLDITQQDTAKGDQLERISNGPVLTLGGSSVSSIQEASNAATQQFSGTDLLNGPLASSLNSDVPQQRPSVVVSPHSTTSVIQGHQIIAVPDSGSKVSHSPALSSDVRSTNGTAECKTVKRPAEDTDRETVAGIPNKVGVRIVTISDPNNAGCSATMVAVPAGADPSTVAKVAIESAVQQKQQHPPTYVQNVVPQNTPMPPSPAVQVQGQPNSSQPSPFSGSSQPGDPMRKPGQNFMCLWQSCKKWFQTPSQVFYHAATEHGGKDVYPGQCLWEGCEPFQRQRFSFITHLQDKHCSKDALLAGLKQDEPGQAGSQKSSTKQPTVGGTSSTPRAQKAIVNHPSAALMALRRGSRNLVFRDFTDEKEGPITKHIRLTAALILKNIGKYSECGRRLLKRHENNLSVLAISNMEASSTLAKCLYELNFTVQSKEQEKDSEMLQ
Description: For other immunoprecipitations, primary antibodies were incubated with lysates for 2 hr followed by Protein A magnetic beads (Life Technologies, 10001D).

B1: endogenous bromodomain-containing protein 9 (BRD9) (other, human, UniProt Q9H8M2 1-597, looked up)
chain: MGKKHKKHKAEWRSSYEDYADKPLEKPLKLVLKVGGSEVTELSGSGHDSSYYDDRSDHERERHKEKKKKKKKKSEKEKHLDDEERRKRKEEKKRKREREHCDTEGEADDFDPGKKVEVEPPPDRPVRACRTQPAENESTPIQQLLEHFLRQLQRKDPHGFFAFPVTDAIAPGYSMIIKHPMDFGTMKDKIVANEYKSVTEFKADFKLMCDNAMTYNRPDTVYYKLAKKILHAGFKMMSKQAALLGNEDTAVEEPVPEVVPVQVETAKKSKKPSREVISCMFEPEGNACSLTDSTAEEHVLALVEHAADEARDRINRFLPGGKMGYLKRNGDGSLLYSVVNTAEPDADEEETHPVDLSSLSSKLLPGFTTLGFKDERRNKVTFLSSATTALSMQNNSVFGDLKSDEMELLYSAYGDETGVQCALSLQEFVKDAGSYSKKVVDDLLDQITGGDHSRTLFQLKQRRNVPMKPPDEAKVGDTLGDSSSSVLEFMSMKSYPDVSVDISMLSSLGKVKKELDPDDSHLNLDETTKLLQDLHEAQAERGGSRPSSNLSSLSNASERDQHHLGSPSRLSVGEQPDVTHDPYEFLQSPEPAASAKT
notes: Endogenous protein in cell lysates; also called bromodomain-containing factor 9
Consider B1, for which the binding result is reported as “no binding”.
